Common to all, as to assay: purified protein
Substrate in data set [1]: NC(=O)c1ccc[n+]([C@@H]2O[C@H](COP(=O)(O)OP(=O)(O)OC[C@H]3O[C@@H](n4cnc5c(N)ncnc54)[C@H](O)[C@@H]3O)[C@@H](O)[C@H]2O)c1
Type of data set: biochemical, Methylotuvimicrobium alcaliphilum. Conditions: malate oxidation, co-substrate malate, pH 10, 30 °C, varied: cofactor.

Substrate in data set [2]: O=C(O)CC(=O)C(=O)O
Type of data set: biochemical, Methylotuvimicrobium alcaliphilum. Conditions: oxaloacetate reduction, co-substrate NADH, pH 10, 30 °C.

Substrate in data set [3]: NC(=O)C1=CN([C@@H]2O[C@H](COP(=O)(O)OP(=O)(O)OC[C@H]3O[C@@H](n4cnc5c(N)ncnc54)[C@H](O)[C@@H]3O)[C@@H](O)[C@H]2O)C=CC1
In kind it is biochemical, Methylotuvimicrobium alcaliphilum. Conditions: oxaloacetate reduction, co-substrate oxaloacetate, pH 10, 30 °C, varied: cofactor.

Substrate in data set [4]: O=C(O)C[C@H](O)C(=O)O
The conditions noted are these: malate oxidation, co-substrate NAD+.

Substrate in data set [5]: NC(=O)c1ccc[n+]([C@@H]2O[C@H](COP(=O)(O)OP(=O)(O)OC[C@H]3O[C@@H](n4cnc5c(N)ncnc54)[C@H](O)[C@@H]3O)[C@@H](O)[C@H]2O)c1
Type of data set: biochemical, Methylosinus trichosporium. Conditions: malate oxidation, co-substrate malate, pH 9.5, 30 °C, varied: cofactor.

Substrate in data set [6]: O=C(O)CC(=O)C(=O)O
In kind it is biochemical, Methylosinus trichosporium. The conditions noted are these: oxaloacetate reduction, co-substrate NADH, pH 9.5, 30 °C.

Substrate in data set [7]: NC(=O)C1=CN([C@@H]2O[C@H](COP(=O)(O)OP(=O)(O)OC[C@H]3O[C@@H](n4cnc5c(N)ncnc54)[C@H](O)[C@@H]3O)[C@@H](O)[C@H]2O)C=CC1
In kind it is biochemical, Methylosinus trichosporium. Conditions: oxaloacetate reduction, co-substrate oxaloacetate, pH 9.5, 30 °C, varied: cofactor.

Consider two proteins from PMC5023229, “Role of NAD^+-Dependent Malate Dehydrogenase in the Metabolism of Methylomicrobium alcaliphilum 20Z and Methylosinus trichosporium OB3b” (Microorganisms, 2015).

B1: MDH from M. alcaliphilum 20Z (MDH-20Z) (Methylotuvimicrobium alcaliphilum 20Z) (protein)
chain: MKTPVKIAVTGAAGQISYSLLFRLASGELLGPDQPMIFHLLETPQALALGALNGVVMELNDCAYPLLHKIVTTDDPDVAFKDVDYAFLIGASPRKPGMERKDLLAINAQIFSVQGQALSKVASRDVKVLVTGNPANTNALIAISNAPDLRPENFSAMMMLDHKRATFQLADKCGVLSNDIKNIIIWGNHSAGQYPDLHHAKVKGQDALSLVEWDWFVDKFIPTVQQRGAVVIQAVGRSSAASAANAALNLMRNWVFGTDEGNWISMAVPSDGSYGIEKDLVYSFPVEIKNGEISIVQGLEISDFSREKMRKSEAELKEEREAVKHLL
notes: full-length, C-terminal His6 (pET22b NdeI/XhoI), E. coli BL21 (DE3), Ni-NTA; homodimer 70 kDa
B1: the Michaelis-Menten constant (Km) (commonly the substrate concentration at which the rate is half of its maximum) came to 450 ± 80 µM in data set [1]; 340 ± 30 µM in data set [2]; 25.2 ± 0.4 µM in data set [3]; 110 ± 10 µM in data set [4] (pH 10, 30 °C, pH 10.0). Also, the kcat (in general, the number of substrate molecules converted per active site and unit of time at saturation) in data set [2] is 870 s⁻¹; in data set [4] (pH 10, 30 °C, pH 10.0), 621 s⁻¹.

B2: MDH from M. trichosporium OB3b (MDH-OB3b) (Methylosinus trichosporium OB3b) (protein)
chain: MARKKIALIGAGNIGGTLAHLIGLKELGDIVLFDIAAGVPQGKALDLAQSSPVSGFDATISGADDYSAIAGADVVIVTAGVPRQPGMSRDDLLSVNLGVVSKVGAGIKTYAPDAFVICITNPLDVMVWALQKCSGLPPAKVVGMAGVLDSARFRYFLAEELQVSVEDVSAFVLGGHGDDMVPSVRYSTVAGVPLPDLVGMGWITQAKIDAIVERTRKGGGEIVSLLKTGSAYYAPAASAIAMAESYLKDKRRVLPCAAHLSGQYGVSDLYVGVPVVIGANGVERIVEISLDSAERQMFDKSVASVRTLIAASKALDPSFA
notes: full-length, C-terminal His6 (pET22b NdeI/XhoI), E. coli BL21 (DE3), Ni-NTA; homotetramer 140 kDa; forward primer encodes (M)MARKKIA; LDH-like MDH, group III
As for B2, the Km was found to be 330 ± 40 µM in data set [5]; 59 ± 7 µM in data set [6]; 37.6 ± 4.6 µM in data set [7]; 1280 ± 170 µM in data set [4] (pH 9.5, 30 °C, pH 9.5). Also, the kcat came out at 1141 s⁻¹ in data set [6] and 516 s⁻¹ in data set [4] (pH 9.5, 30 °C, pH 9.5).
